Key:
[1] = Arginase specific activity, DAMO colorimetric assay; format: biochemical; conditions: 37° C., pH 7.4, purified preparation
Excerpt: The arginase activity of the fusion proteins described herein can be substantially the same, lower, or higher than the activity of the arginase polypeptide from which it is derived. One unit of arginase activity is defined as the amount of fusion protein [e.g., BHA (SEQ ID NO; 75), BAH (SEQ ID NO: 76), N-ABD-rhArg (SEQ ID NO: 49), or N-ABD094-rhArg (SEQ ID NO: 50)] or arginase [e.g., BCA (SEQ ID NO: 70)] that catalyzes the production of 1 μmol of urea per min under standard assay conditions. The specific activity of the enzyme is expressed as activity units per mg of protein. Under standard diacetylmonoxime (DAMO) assay conditions (37° C., pH 7.4), the fusion proteins can have a specific activity that is about 5%, about 10%, about 15%, about 20%, about 25% about 30%, about 35% or about 40% lower or higher than the corresponding arginase polypeptide which it incorporates. In certain embodiments, fusion proteins can have a specific activity that is about 5% to about 40%, about 10% to about 40%, about 10% to about 35%, about 10% to about 30%, about 20% to about 30%, about 20% to about 35%, about 15% to about 30%, about 15% to about 25%, or about 10% to about 20% lower or higher than the corresponding arginase polypeptide which it incorporates.
One unit of enzyme activity is defined as the amount of enzyme (BCA, BHA or BAH) that catalyzes the production of 1 μmol urea per min under standard assay conditions. Specific activity of the enzyme is expressed as activity units per mg of protein.
Briefly, a serial dilution of 0.3 mL BCA solutions together with 0.15 mL water and 720 mM arginine substrate at pH 7.4 was pre-incubated separately at 37° C. for 10 min. The enzymatic reaction was carried out by adding 0.3 mL arginine substrate to the pre-incubated enzyme solutions. […]
The urea formed from the above reaction was quantified using the DAMO direct colorimetric method described by World Health Organization (WHO). […] The absorbance at 540 nm was measured. […]

[2] = Prevention of HFD-induced obesity, male mice; format: in vivo, C57BL/6J male mice
Excerpt: To determine the efficacy of N-ABD094-rhArg (SEQ ID NO: 50) in preventing mice from diet-induced obesity and associated metabolic disorders, C57BL/6J male mice were fed a high-fat diet containing 60 kcal % fat (HFD; Research Diets, D12492) from 8 week old for 12 weeks, and concurrently received i.p. injection of 200-300U N-ABD094-rhArg (SEQ ID NO: 50) or saline as vehicle control at 7-day intervals. C57BL/6J mice fed a matched low fat diet containing 10 kcal % fat (LFD; Research Diets, D12450J) and injected with saline served as the lean control of various measurements.
Two cohorts, with n=5 in each group, had been separately conducted. Mice were housed in group of 5. Similar results were obtained in the two independent cohorts. Data of one cohort of mice were summarized in Examples 18-22.

B1: N-ABD094-rhArg: albumin binding domain ABD094 fused N-terminally to recombinant human arginase I, SEQ ID NO: 50 (protein)
chain: MHHHHHHDEAVDANSLAEAKEAANAELDSYGVSDFYKRLIDKAKTVEGVEALKDAILAALPSGSNNNNNNGSGGMSAKSRTIGIIGAPFSKGQPRGGVEEGPTVLRKAGLLEKLKEQECDVKDYGDLPFADIPNDSPFQIVKNPRSVGKASEQLAGKVAEVKKNGRISLVLGGDHSLAIGSISGHARVHPDLGVIWVDAHTDINTPLTTTSGNLHGQPVSFLLKELKGKIPDVPGFSWVTPCISAKDIVYIGLRDVDPGEHYILKTLGIKYFSMTEVDRLGIGKVMEETLSYLLGRKKRPIHLSFDVDGLDPSFTPATGTPVVGGLTYREGLYITEEIYKTGLLSGLDIMEVNPSLGKTPEEVTRTVNTAVAITLACFGLAREGNHKPIDYLNPPK
modifications: Mn2+; N-ABD094-rhArg, Synthesized in the Lab
Specific activity [1]: 184 U/mg | HFD-induced downregulation of Acox1 in BAT ([2]; 12 weeks HFD): block the downregulation | HFD-induced upregulation of adipogenic transcription factors and lipogenic enzymes in the liver ([2]; 12 weeks HFD): significantly suppress | mRNA of Ucp1 and Pgc1α in BAT ([2]; 12 weeks HFD): significantly upregulated | mRNA of proinflammatory adipokines (Mcp1, Il1b, Tnfa) in perigonadal WAT ([2]; 12 weeks HFD): suppress the upregulation | serum levels of Mcp1 (ELISA) ([2]; 12 weeks HFD): suppress an elevation | weight of kidney, pancreas and heart ([2]; 12 weeks HFD): effectively prevent weight gain | weight gain and expansion of WAT caused by HFD ([2]; 200-300U i.p. at 7-day intervals, 12 weeks, concurrent with HFD): effectively prevented | adipocyte hypertrophy in WAT (histology) ([2]; 200-300U weekly, 12 weeks, HFD): prominently suppressed | mRNA of Pparg, Srebp1c, Acc1, Scd1 in gWAT ([2]; 200-300U weekly, 12 weeks, HFD): dramatic downregulation | mRNA of Pparg, Srebp1c, Acc1, Scd1 in skeletal muscle ([2]; 200-300U weekly, 12 weeks, HFD): significantly downregulated | development of hyperglycemia and hyperinsulinemia (fasting blood glucose, plasma insulin, HOMA-IR) ([2]; concurrent weekly treatment, HFD): completely prevent | development of HFD-induced impaired glucose tolerance (GTT) ([2]; concurrent weekly treatment, GTT at 5 and 10 weeks): completely prevent | development of HFD-induced insulin resistance (ITT) ([2]; concurrent weekly treatment, ITT at 6 and 11 weeks): completely prevent | development of hyperleptinemia, hypercholesterolemia, hypertriglyceridemia, hyper-free fatty acidemia ([2]; fasting plasma at 12 weeks of HFD): completely prevent
